Results on four molecules are retold here after patent US10208288B2, “Differentiation of human embryonic stem cells into pancreatic endocrine cells” (Janssen Biotech, Inc., priority 2012, dated 2019).

The test system of this assay is cells of the human embryonic stem cell line H1 differentiated to stage 5. Put plainly: Real-time PCR of pancreatic endoderm/endocrine genes after factors spiked into stage 5 media. It counts as cell-based. To be noted: for expression of somatostatin / expression of ghrelin / expression of glucagon: 20 ng/ml at S5, mRNA at day 3 of S5, vs control; for expression of somatostatin: FIG. 1B; for expression of ghrelin: FIG. 1C; for expression of glucagon: FIG. 1D; for mRNA expression of insulin / mRNA expression of NKX6.1: factor spiked at day 1 of stage 5, mRNA at day 3 of S5, vs control cultures, Table I: Ephrin-A4 100 ng/ml; for mRNA expression of insulin: Activin A and Activin C 20 ng/ml, FIG. 1A; for expression of hormones / mRNA expression of NKX6.1: Semaphorin 3a 50 ng/ml; for expression of hormones: Epigen 20 ng/ml at S5, compared to untreated cultures; for mRNA expression of NKX6.1: Epigen 20 ng/ml, FIG. 1F. As for the experimental part:
Cells of the human embryonic stem cell line H1 (hESC H1, passage 40) were seeded as single cells at 1×10^5 cells/cm^2 on MATRIGEL™ (1:30 dilution; BD Biosciences, NJ)-coated dishes in mTeSR®1 media (StemCell Technologies, Vancouver, Canada) supplemented with 10 μM of Y27632 (Rock inhibitor, Catalog No. Y0503, SigmaAldrich, St. Louis, Mo.). Forty-eight hours post seeding, cultures were washed in incomplete PBS (phosphate buffered saline without Mg or Ca). Cultures were differentiated into pancreatic endoderm/endocrine lineages as follows: • a) Stage 1 (Definitive Endoderm (DE)—3 days): Cells were cultured for one day in stage 1 media: MCDB-131 medium (Catalog No. 10372-019, Invitrogen, Carlsbad, Calif.) supplemented with 0.1% fatty acid-free BSA (Catalog No. 68700, Proliant, Ankeny, Iowa), 0.0012 g/ml sodium bicarbonate (Catalog No. S3187, SigmaAldrich, St. Louis, Mo.), 1× GlutaMax™ (Invitrogen Catalog No. 35050-079), 4.5 mM D-Glucose (SigmaAldrich Catalog No. G8769), 100 ng/ml GDF8 (R&D Systems, Minneapolis, Minn.) and 1 μM MCX compound (a GSK3B inhibitor, 14-Prop-2-en-1-yl-3,5,7,14,17,23,27-heptaazatetracyclo [19.3.1.1˜2,6˜0.1˜8,12˜]heptacosa-1(25),2(27),3,5,8(26),9,11,21,23-nonaen-16-one, US Patent Application Publication No. 2010-0015711; incorporated herein by reference in its entirety). Cells were then cultured for additional day in MCDB-131 medium supplemented with 0.1% fatty acid-free BSA, 0.0012 g/ml sodium bicarbonate, 1× GlutaMax™, 4.5 mM D-Glucose, 100 ng/ml GDF8, and 0.1 μM MCX compound. Cells were then cultured for an additional day in MCDB-131 medium supplemented with 0.1% fatty acid-free BSA, 0.0012 g/ml sodium bicarbonate, 1× GlutaMax™, 4.5 mM D-Glucose, and 100 ng/ml GDF8, then • b) Stage 2 (Primitive gut tube—2 days): Cells were treated for two days with MCDB-131 medium supplemented with 0.1% fatty acid-free BSA; 0.0012 g/ml sodium bicarbonate; 1× GlutaMax™; 4.5 mM D-Glucose; 0.25 mM ascorbic acid (Sigma, St. Louis, Mo.) and 25 ng/ml FGF7 (R & D Systems, Minneapolis, Minn.), then • c) Stage 3 (Foregut—2 days): Cells were treated with MCDB-131 medium supplemented with a 1:200 dilution of ITS-X (Invitrogen); 4.5 mM Glucose; 1× GlutaMax™; 0.0017 g/ml sodium bicarbonate; 2% fatty acid-free BSA; 0.25 μM SANT-1 (Sigma, St. Louis, Mo.); 10 ng/ml of Activin-A (R & D Systems); 1 μM retinoic acid (RA; Sigma); 25 ng/ml FGF7; 0.25 mM ascorbic acid; 200 nM TPB (a PKC activator; Catalog No. 565740; EMD Chemicals, Gibstown, N.J.); 10 μM forskolin (FSK, Sigma), and 100 nM LDN (a BMP receptor inhibitor; Catalog No. 04-0019; Stemgent; San Diego, Calif.) for day 1. On day 2, cells were treated with MCDB-131 medium supplemented with a 1:200 dilution of ITS-X; 4.5 mM Glucose; 1× GlutaMax™; 0.0017 g/ml sodium bicarbonate; 2% fatty acid-free BSA; 0.25 μM SANT-1; 10 ng/ml of Activin A; 1 μM RA; 25 ng/ml FGF7; 0.25 mM ascorbic acid, 200 nM TPB, 10 μM forskolin and 10 nM LDN, then • d) Stage 4 (Pancreatic foregut precursor—2 days); Cells were treated with MCDB-131 medium supplemented with a 1:200 dilution of ITS-X; 4.5 mM Glucose; 1× GlutaMax™; 0.0015 g/ml sodium bicarbonate; 2% fatty acid-free BSA; 0.25 μM SANT-1; 50 nM RA; 50 nM LDN-193189; 10 μM forskolin; 0.25 mM ascorbic acid; and 100 nM TPB for two days, then • e) Stage 5 (Pancreatic endoderm/endocrine—3 days): Stage 4 cells were treated with MCDB-131 medium supplemented with a 1:200 dilution of ITS-X; 20 mM Glucose; 1× GlutaMax™; 0.0015 g/ml sodium bicarbonate; 2% fatty acid-free BSA; 0.25 μM SANT-1; 50 nM RA; 10 μM forskolin; 0.25 mM ascorbic acid for three days, with the addition of 100 nM ALk5 inhibitor SD-208 (disclosed in Molecular Pharmacology 2007, 72:152-161) for days 2-3 only.
At day 1 of stage 5, the factors listed in Table I, below, were spiked into the media and upon completion of S5 (day 3 of stage 5) mRNA was collected for PCR analysis of relevant pancreatic endoderm/endocrine genes. As a control, cultures were treated only with the S5 media listed above. […]
For orientation: Quantitative PCR measures a nucleic acid by following its amplification.

B1: Activin-A: protein factor, R & D Systems catalogue number 338-AC-010 (protein, UniProt P08476 311-426, looked up)
Inhibin beta A chain: GLECDGKVNICCKKQFFVSFKDIGWNDWIIAPSGYHANYCEGECPSHIAGTSGSSLSFHSTVINHYRMRGHSPFANLKSCCVPTKLRPMSMLYYDDGQNIIKKDIQNMIVEECGCS
As for B1, the expression of somatostatin entry is reported as “significantly enhanced”, the expression of ghrelin entry is recorded as “suppressing”, the expression of glucagon entry is given as “suppressing” and the “mRNA expression of insulin” value is “suppressing”.

B2: semaphorin 3a: protein factor, R & D Systems catalogue number 1250-S3-025 (protein, UniProt Q14563 21-771, looked up)
Semaphorin-3A: NYQNGKNNVPRLKLSYKEMLESNNVITFNGLANSSSYHTFLLDEERSRLYVGAKDHIFSFDLVNIKDFQKIVWPVSYTRRDECKWAGKDILKECANFIKVLKAYNQTHLYACGTGAFHPICTYIEIGHHPEDNIFKLENSHFENGRGKSPYDPKLLTASLLIDGELYSGTAADFMGRDFAIFRTLGHHHPIRTEQHDSRWLNDPKFISAHLISESDNPEDDKVYFFFRENAIDGEHSGKATHARIGQICKNDFGGHRSLVNKWTTFLKARLICSVPGPNGIDTHFDELQDVFLMNFKDPKNPVVYGVFTTSSNIFKGSAVCMYSMSDVRRVFLGPYAHRDGPNYQWVPYQGRVPYPRPGTCPSKTFGGFDSTKDLPDDVITFARSHPAMYNPVFPMNNRPIVIKTDVNYQFTQIVVDRVDAEDGQYDVMFIGTDVGTVLKVVSIPKETWYDLEEVLLEEMTVFREPTAISAMELSTKQQQLYIGSTAGVAQLPLHRCDIYGKACAECCLARDPYCAWDGSACSRYFPTAKRRTRRQDIRNGDPLTHCSDLHHDNHHGHSPEERIIYGVENSSTFLECSPKSQRALVYWQFQRRNEERKEEIRVDDHIIRTDQGLLLRSLQQKDSGNYLCHAVEHGFIQTLLKVTLEVIDTEHLEELLHKDDDGDGSKTKEMSNSMTPSQKVWYRDFMQLINHPNLNTMDEFCEQVWKRDRKQRRQRPGHTPGNSNKWKHLQENKKGRNRRTHEFERAPRSV
Consider B2, for which the expression of hormones result is given as “not affecting” and the “mRNA expression of NKX6.1” value was “enhanced”.

B3: Epigen: protein factor, R & D Systems catalogue number 6629-EP-025 (protein, UniProt Q6UW88 23-154, looked up)
Epigen: AAVTVTPPITAQQGNWTVNKTEADNIEGPIALKFSHLCLEDHNSYCINGACAFHHELEKAICRCFTGYTGERCEHLTLTSYAVDSYEKYIAIGIGVGLLLSGFLVIFYCYIRKRCLKLKSPYNVCSGERRPL
As to B3, the expression of hormones result is reported as “not affecting” and the “mRNA expression of NKX6.1” value is on record as “enhanced”.

B4: Activin-C: protein factor, R & D Systems catalogue number 4879-AC-010 (protein, UniProt P55103 237-352, looked up)
Inhibin beta C chain: GIDCQGGSRMCCRQEFFVDFREIGWHDWIIQPEGYAMNFCIGQCPLHIAGMPGIAASFHTAVLNLLKANTAAGTTGGGSCCVPTARRPLSLLYYDRDSNIVKTDIPDMVVEACGCS
Regarding B4, the expression of somatostatin entry is listed as “significantly enhanced”, the expression of ghrelin result is given as “suppressing”, the expression of glucagon entry is “suppressing” and the “mRNA expression of insulin” value is “suppressing”.
